The term kcat denotes the number of substrate molecules converted per active site and unit of time at saturation. What is called kcat/Km is the second-order rate constant that governs catalysis at low substrate concentration. One may read the stoichiometry N as a count of units in the complex or per binding partner.

These results are taken from PMC4081090, “Structure of the N-glycosidase MilB in complex with hydroxymethyl CMP reveals its Arg23 specifically recognizes the substrate and controls its entry” (Nucleic Acids Research, 2014).

For data set [1], the target named is T1, BlsM (Streptomyces griseochromogenes, UniProt Q841K1).
T1 construct: N-terminal 6xHis tag (pET28a), E. coli BL21(DE3)
The data set can be described thus: HPLC of released 5hmC, Michaelis-Menten fit. The following applies: 50 mM Tris-HCl, pH 7.2, 37 °C, 30 min. Format: biochemical. An excerpt: HPLC of released 5hmC, Michaelis-Menten fit on BlsM

Substrate in data set [2]: Nc1nc(=O)n([C@@H]2O[C@H](COP(=O)(O)O)[C@@H](O)[C@H]2O)cc1CO
The data set can be described thus: HPLC of released 5hmC, Michaelis-Menten fit. The following applies: 50 mM Tris-HCl, pH 7.2, 37 °C, 30 min. Format: biochemical, Streptomyces rimofaciens. An excerpt:
HPLC of released 5hmC, Michaelis-Menten fit on MilB

Data set [3] deals with the molecule itself. The data set can be described thus: SEC; size exclusion chromatography of MilB in solution (Figure S1); conditions of this run not given. A general note: SEC sorts molecules by how far they enter the pores of the column.
Substrate in data set [4]: Nc1ccn([C@@H]2O[C@H](COP(=O)(O)O)[C@@H](O)[C@H]2O)c(=O)n1
The data set can be described thus: HPLC of released cytosine, Michaelis-Menten fit. The following applies: 50 mM Tris-HCl, pH 7.2, 37 °C, 30 min. Format: biochemical, Streptomyces rimofaciens. An excerpt: HPLC of released cytosine, Michaelis-Menten fit on MilB

T1 sequence (Q841K1 entry or part of it): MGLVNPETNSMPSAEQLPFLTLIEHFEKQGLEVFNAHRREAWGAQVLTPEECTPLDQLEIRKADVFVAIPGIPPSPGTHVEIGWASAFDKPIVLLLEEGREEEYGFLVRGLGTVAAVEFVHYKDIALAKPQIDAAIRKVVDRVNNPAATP

With `Nc1nc(=O)n([C@@H]2O[C@H](COP(=O)(O)O)[C@@H](O)[C@H]2O)cc1CO` [hmCMP, 5-hydroxymethyl cytidine 5′-monophosphate], in data set [1], the Km worked out at 328 µM.

B1: N-glycosidase MilB, wild type (enzyme, Streptomyces remofaciens ZJU5119, UniProt B4Y381 1-170, looked up)
chain: MTTTPKPRTAPAVGSVFLGGPFRQLVDPRTGVMSSGDQNVFSRLIEHFESRGTTVYNAHRREAWGAEFLSPAEATRLDHDEIKAADVFVAFPGVPASPGTHVEIGWASGMGKPMVLLLERDEDYAFLVTGLESQANVEILRFSGTEEIVERLDGAVARVLGRAGEPTVIG
notes: MilB, N-glycosidase (CMP/hydroxymethyl CMP hydrolase) of the mildiomycin biosynthesis pathway, Streptomyces remofaciens ZJU5119; the full-length protein consists of 170 residues; residues 12-169 are seen in the crystal model; Cloned into pET28a with an N-terminal 6xHis tag; also called WT MilB; full-length MilB; source: E. coli BL21(DE3), purified (Ni-NTA, Superdex200 gel filtration)
In the case of B1, in data set [2], the Km is given as 71.55 (11.66) μM, the kcat was determined as 0.0531 s⁻¹ and the kcat/Km worked out at 743 M⁻¹ s⁻¹. Also, the “stoichiometry N” value in data set [3] is 2.

B2: MilB (Streptomyces rimofaciens; R23M) (protein)
chain: MTTTPKPRTAPAVGSVFLGGPFMQLVDPRTGVMSSGDQNVFSRLIEHFESRGTTVYNAHRREAWGAEFLSPAEATRLDHDEIKAADVFVAFPGVPASPGTHVEIGWASGMGKPMVLLLERDEDYAFLVTGLESQANVEILRFSGTEEIVERLDGAVARVLGRAGEPTVIG
notes: full-length (170 residues), N-terminal 6xHis tag (pET28a), E. coli BL21(DE3); dimer; crystal model residues 12-169 / 12-170
On to B2, for which, in data set [2], the Km is recorded as 86.63 (10.67) μM, the kcat came out at 0.0156 s⁻¹ and the kcat/Km amounted to 180 M⁻¹ s⁻¹. In data set [4], the Km was 1122.00 (100) μM, the kcat stood at 0.0305 s⁻¹ and the catalytic efficiency (kcat/Km) worked out at 27.1 M⁻¹ s⁻¹.
